The DeepSol protein solubility set

Test: soluble on expression in E. coli; label from the status in PepcDB or PDB records

Soluble on expression in E. coli, soluble:
MSLSLMLTVETRQAVNPDYAKTLDTEGLRRHFLANDMFRSGEIRLIYTHYDRFVMGGAVPNGAPLTLDKVEETKTPSFLDRREMGIVNIGETGTVSAGDETYTLNRGDVLYLGAGSRAVTFDGAGRFYITSCPAHRSLPAKLVSLADSKEVKLGATETSNKRTINQFIHPLVMESCQLVLGYTMLEDGSVWNTIPSHIHDRRMEAYLYFGMDEKSRVLHLMGEPQETRHLFISNEEGAISPPWSIHSGAGIGSYTFIWAMAGDNVDYTDMDFIQPGDLKEGHHHHHH
MRHVISVLVQDHPRVLNRITGLFARRGFNLESLAVGTTHQPGLSRICLVVSGDDRTLEQVEKQLNRLIEVLKVTDHTEPHVERELCLVKVHVAGLEERLAVKDIQEAFRARVVDVAQKSLILELTGDTQKVNSFIEALRPYGILEVMRTGAVAMSRGDRVLKVREKKEAV
MPIMLEDYQKNFLELAIECQALRFGSFKLKSGRESPYFFNLGLFNTGKLLSNLATAYAIAIIQSDLKFDVIFGPAYKGIPLAAIVCVKLAEIGGSKFQNIQYAFNRKEAKDHGEGGIIVGSALENKRILIIDDVMTAGTAINEAFEIISNAKGQVVGSIIALDRQEVVSTDDKEGLSATQTVSKKYGIPVLSIVSLIHIITYLEGRITAEEKSKIEQYLQTYGASA

Soluble on expression in E. coli, not soluble:
MGGSHHHHHHGMASALGADGFVPLGTLLQLPQFRGFSAEDVQRVVDTNRKQRFALQLGDPSTGLLIRANQGHSLQVPKLELMPLETPQALPPMLVHGTFWKHWPSILLKGLSCQGRTHIHLAPGLPGDPGIISGMRSHCEIAVFIDGPLALADGIPFFRSANGVILTPGNTDGFLLPKYFKEALQLRPTRKPLSLAGDEETECQSSPKHSSRERRRIQQ
DKIGTAVLQGVMQGRRAKDVAKEIEQITDATASRATFIARDQTSKMNAAFNEIRQVGLGIESYTWQTSGDERVREDHAAHDGTVFRWSDPPATGHPGQDYNCRCVAIPNVTLEGP
KAPLRDMRFVLNEVFEVSRLWAQLPALAEVVDAETAAAILEEAGKVTAGTIAPLNRPGDEEGCQWNAGAVSTPAGFPEAYRTYAEGGWVGVGGDPAYGGMGMPKVISAQVEELVNSANLSFGLYPMLTAGACLALNAHASDELKDKYLPNMYAGIWAGSMCLTEPHAGTDLGIIRTRAEPQADGSYKISGTKIFITGGEHDLTENIIHLVLAKLPDAPAGPKGISLFLVPKVLVNADGSLGEKNSLGCGSIEHKMGIKASATCVMNFDGATGWLVGEVNKGLAAMFTMMNYERLGVGIQGLATGERSYQSAIEYARERIQSRAPTGPVAKDKAADPIIVHPDVRRMLLTMKALNEGGRAFSSYVAMQLDTAKYSEDAVTRKRAEELVALLTPVAKAFLTDMGLETTIHGQQIFGGHGFIREWGQEQLVRDCRITQIYEGTNGIQALDLVGRKVIGSGGAFSRHFTDEIKAFVASADEALGEFSKPLAAAVENLEELTAWLLDRAKGNPNEIGAASVEYLHVFGYTAYAYMWALMARTALAKQGEDDFYASKLGTARFYFARLLPRIHSLSASVRAGS
DPTKNLRSVDLAVVNEDEGATRNGEFNRYGDKVVKGLLDKDYLAFKQVSADEAAKGLDNGTYLFTVTIPEKFSENVNTLLADQPTKPEIILSYNDFNGTNGSVLTGGLVPKIQQAVSASISESYATKLVNGVNKLGGGLERAADGSAKLEEGSGKLKDGLAKGVAGSQKLNDGSHQLAEGTAKLADGTGQLADGASRLAAGTAKLGNGAAQIDDGVGTLVNTLIPVLTTAQAAAPQLQQAADALRAVGMVAEADRIQDLATKFDANNPDNQVNKLNKLKNGTATLRYMLSDPSSEYYGGVLKLSDGVAKAHDGAVRLNDGAHRLADGTAQLANGTQQLYDGAGRLNEGANTLATKLDEGAKNAPKVPNAEASAKQISVPIVYKENNANPVQTVVDSNDPTAKKLNGGAS
MGSDKIHHHHHHMSIDYSQKIPNNVNLADDRALQRALEHWQPAFLDWWRDMGPEGSHNFDVYLRTAVSVDPSGWAHFEHVKMPDYRWGIFLQPADPARQIHFGEHKGEAAWQDVPGEHRANLRRIIVTQGDTEPASVEQQRHLGLTAPSLYDLRNLFQVNVEEGRHLWAMVYLLHRYFGRDGREEAEALLDRRSGDQDNPRILGAFNERTPDWLSFFMFTYFTDRDGKFQLCALAESGFDPLARTTRFMLTEEAHHMFVGESGVSRVIQRTCEVMRERDIRDPADVRAAGVIDLETIQRYLNFHYSVTIDLFGADQSSNAATFYSAGLKGRFEEGKRTDDHVLKSDVYRVLEVRDGQLGEREVPMLNALNEVLRDDYIRDSIGGVARWNKVIEKHGIPFKLTVPHKAFNRKIGTLSNVHVSPTGELLTEAQWQANERNWLATEEDRAYVASLMGRVTEPGKYANWIAPPAVGVNRQPMDFEYVRFN
